Biological target: T1, purified human C3b (human, UniProt P01024 23-667; P01024 749-1663)
T1 construct: C3b is the two-chain cleavage product of C3; source: purified human C3b
Test: ELISA; C3b (5 ug/ml) or C3d (5 ug/ml) coated on wells; purified biotinylated human FH (6 ug/ml) preincubated in solution with different amounts of total IgG from patient serum (kAb) or NHS
Details: both partners purified

T1 sequence (P01024 23-667, chain 1 of 2): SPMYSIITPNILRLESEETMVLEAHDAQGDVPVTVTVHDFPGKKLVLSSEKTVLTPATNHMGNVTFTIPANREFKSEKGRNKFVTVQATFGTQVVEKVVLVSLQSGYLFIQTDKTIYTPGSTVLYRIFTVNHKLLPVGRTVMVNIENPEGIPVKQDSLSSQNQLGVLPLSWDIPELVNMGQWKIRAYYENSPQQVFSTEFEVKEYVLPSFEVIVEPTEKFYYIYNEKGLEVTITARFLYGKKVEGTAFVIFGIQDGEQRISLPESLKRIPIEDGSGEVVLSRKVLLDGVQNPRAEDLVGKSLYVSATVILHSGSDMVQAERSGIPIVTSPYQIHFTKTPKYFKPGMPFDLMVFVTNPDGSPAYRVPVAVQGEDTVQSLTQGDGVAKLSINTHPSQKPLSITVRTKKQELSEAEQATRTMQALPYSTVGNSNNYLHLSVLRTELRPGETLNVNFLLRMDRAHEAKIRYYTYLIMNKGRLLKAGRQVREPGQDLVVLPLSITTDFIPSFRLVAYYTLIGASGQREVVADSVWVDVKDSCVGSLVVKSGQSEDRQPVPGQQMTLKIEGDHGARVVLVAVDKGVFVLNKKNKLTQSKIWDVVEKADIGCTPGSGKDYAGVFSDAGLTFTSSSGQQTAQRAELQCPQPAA
T1 sequence (P01024 749-1663, chain 2 of 2): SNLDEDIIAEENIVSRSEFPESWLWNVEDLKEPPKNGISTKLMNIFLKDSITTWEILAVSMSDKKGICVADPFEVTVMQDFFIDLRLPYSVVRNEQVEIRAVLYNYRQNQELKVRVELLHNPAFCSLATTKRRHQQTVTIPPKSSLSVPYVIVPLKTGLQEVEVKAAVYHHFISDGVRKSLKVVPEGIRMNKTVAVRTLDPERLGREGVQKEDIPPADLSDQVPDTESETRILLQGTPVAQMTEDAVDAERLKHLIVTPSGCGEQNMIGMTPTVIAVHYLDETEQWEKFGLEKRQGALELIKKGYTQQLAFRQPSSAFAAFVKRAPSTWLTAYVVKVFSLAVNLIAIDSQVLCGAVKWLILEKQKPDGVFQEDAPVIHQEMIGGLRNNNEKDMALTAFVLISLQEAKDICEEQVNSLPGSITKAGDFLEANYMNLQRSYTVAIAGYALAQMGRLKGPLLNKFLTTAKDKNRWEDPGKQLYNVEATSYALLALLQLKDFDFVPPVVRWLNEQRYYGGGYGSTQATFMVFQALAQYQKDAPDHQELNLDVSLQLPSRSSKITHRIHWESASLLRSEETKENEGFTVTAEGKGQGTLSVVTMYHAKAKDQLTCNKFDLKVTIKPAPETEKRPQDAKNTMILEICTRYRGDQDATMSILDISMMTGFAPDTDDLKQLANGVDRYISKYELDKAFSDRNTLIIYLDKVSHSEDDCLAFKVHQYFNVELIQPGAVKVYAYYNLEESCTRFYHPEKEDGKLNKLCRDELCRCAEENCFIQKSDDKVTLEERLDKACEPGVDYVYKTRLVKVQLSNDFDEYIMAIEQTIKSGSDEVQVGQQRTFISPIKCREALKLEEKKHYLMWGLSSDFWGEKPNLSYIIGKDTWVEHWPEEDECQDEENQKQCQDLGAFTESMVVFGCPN

B1: purified biotinylated human factor H (natural protein, UniProt P08603 19-1231, looked up)
chain: EDCNELPPRRNTEILTGSWSDQTYPEGTQAIYKCRPGYRSLGNVIMVCRKGEWVALNPLRKCQKRPCGHPGDTPFGTFTLTGGNVFEYGVKAVYTCNEGYQLLGEINYRECDTDGWTNDIPICEVVKCLPVTAPENGKIVSSAMEPDREYHFGQAVRFVCNSGYKIEGDEEMHCSDDGFWSKEKPKCVEISCKSPDVINGSPISQKIIYKENERFQYKCNMGYEYSERGDAVCTESGWRPLPSCEEKSCDNPYIPNGDYSPLRIKHRTGDEITYQCRNGFYPATRGNTAKCTSTGWIPAPRCTLKPCDYPDIKHGGLYHENMRRPYFPVAVGKYYSYYCDEHFETPSGSYWDHIHCTQDGWSPAVPCLRKCYFPYLENGYNQNYGRKFVQGKSIDVACHPGYALPKAQTTVTCMENGWSPTPRCIRVKTCSKSSIDIENGFISESQYTYALKEKAKYQCKLGYVTADGETSGSITCGKDGWSAQPTCIKSCDIPVFMNARTKNDFTWFKLNDTLDYECHDGYESNTGSTTGSIVCGYNGWSDLPICYERECELPKIDVHLVPDRKKDQYKVGEVLKFSCKPGFTIVGPNSVQCYHFGLSPDLPICKEQVQSCGPPPELLNGNVKEKTKEEYGHSEVVEYYCNPRFLMKGPNKIQCVDGEWTTLPVCIVEESTCGDIPELEHGWAQLSSPPYYYGDSVEFNCSESFTMIGHRSITCIHGVWTQLPQCVAIDKLKKCKSSNLIILEEHLKNKKEFDHNSNIRYRCRGKEGWIHTVCINGRWDPEVNCSMAQIQLCPPPPQIPNSHNMTTTLNYRDGEKVSVLCQENYLIQEGEEITCKDGRWQSIPLCVEKIPCSQPPQIEHGTINSSRSSQESYAHGTKLSYTCEGGFRISEENETTCYMGKWSSPPQCEGLPCKSPPEISHGVVAHMSDSYQYGEEVTYKCFEGFGIDGPAIAKCLGEKWSHPPSCIKTDCLSLPSFENAIPMGEKKDVYKAGEQVTYTCATYYKMDGASNVTCINSRWTGRPTCRDTSCVNPPTVQNAYIVSRQMSKYPSGERVRYQCRSPYEMFGDEEVMCLNGNWTEPPQCKDSTGKCGPPPPIDNGDITSFPLSVYAPASSVEYQCQNLYQLEGNKRITCRNGQWSEPPKCLHPCVISREIMENYNIALRWTAKQKLYSRTGESVEFVCKRGYRLSSRSHTLRTTCWDGKLEYPTCAKR
modifications: biotin (biotinylated; sites not stated)
notes: complement factor H, human, 155 kDa serum protein of 20 CCP domains; purified human protein; also called FH; source: purified human FH, biotinylated
B1: binds.
